In PMC10153460 one finds ATPase activity of purified cohesin in the presence of DNA with Scc2p, against wild-type cohesin with Scc2p; EnzChek phosphate assay (% greater than wild-type cohesin) and ATPase activity of purified cohesin in the presence of DNA, induction by Scc2p against that of wild-type cohesin; EnzChek phosphate assay (fold less than wild type) data, which are given here for one substance.

Experiment [1] has as its target smc1p-T1117I cohesin (S. cerevisiae) (UniProt P32908).
Experiment [2] addresses cohesin with Smc1p-D1164E (S. cerevisiae) (UniProt P32908).
Experiment [3] concerns the target cohesin with Smc1p-T1117W (S. cerevisiae) (UniProt P32908).

Chain of smc1p-T1117I cohesin (S. cerevisiae) (P32908 whole entry T1117I, chain 1 of 4): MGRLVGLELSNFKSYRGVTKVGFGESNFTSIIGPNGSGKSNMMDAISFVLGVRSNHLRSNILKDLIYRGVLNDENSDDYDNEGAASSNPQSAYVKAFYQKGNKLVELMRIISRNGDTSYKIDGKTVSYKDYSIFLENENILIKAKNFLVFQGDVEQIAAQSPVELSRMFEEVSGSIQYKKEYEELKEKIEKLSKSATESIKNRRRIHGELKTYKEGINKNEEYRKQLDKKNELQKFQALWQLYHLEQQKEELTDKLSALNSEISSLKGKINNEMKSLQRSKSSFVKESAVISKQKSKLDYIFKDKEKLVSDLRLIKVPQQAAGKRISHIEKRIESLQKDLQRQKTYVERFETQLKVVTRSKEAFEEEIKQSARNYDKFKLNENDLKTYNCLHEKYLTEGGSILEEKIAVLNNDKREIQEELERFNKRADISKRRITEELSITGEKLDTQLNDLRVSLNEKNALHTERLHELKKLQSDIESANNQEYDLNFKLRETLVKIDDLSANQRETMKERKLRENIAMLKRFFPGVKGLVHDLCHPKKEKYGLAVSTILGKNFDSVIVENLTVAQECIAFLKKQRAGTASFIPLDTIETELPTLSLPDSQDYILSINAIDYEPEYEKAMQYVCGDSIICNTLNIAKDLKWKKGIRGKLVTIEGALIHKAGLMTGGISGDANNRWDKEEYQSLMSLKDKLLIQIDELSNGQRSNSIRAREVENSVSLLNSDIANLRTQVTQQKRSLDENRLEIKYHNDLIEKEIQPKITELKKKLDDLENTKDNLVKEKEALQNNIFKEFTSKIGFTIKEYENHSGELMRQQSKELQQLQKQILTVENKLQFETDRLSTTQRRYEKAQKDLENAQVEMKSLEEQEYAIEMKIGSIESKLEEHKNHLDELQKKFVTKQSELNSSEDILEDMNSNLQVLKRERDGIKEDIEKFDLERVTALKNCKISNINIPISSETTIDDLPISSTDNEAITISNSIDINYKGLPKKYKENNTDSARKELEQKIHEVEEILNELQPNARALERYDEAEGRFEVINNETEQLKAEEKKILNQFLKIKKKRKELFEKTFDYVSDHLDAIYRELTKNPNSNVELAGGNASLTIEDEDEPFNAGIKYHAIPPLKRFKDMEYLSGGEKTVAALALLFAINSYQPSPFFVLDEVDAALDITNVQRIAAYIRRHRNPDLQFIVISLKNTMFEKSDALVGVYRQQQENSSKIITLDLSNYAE
Chain of smc1p-T1117I cohesin (S. cerevisiae) (P47037 whole entry, chain 2 of 4, further chain): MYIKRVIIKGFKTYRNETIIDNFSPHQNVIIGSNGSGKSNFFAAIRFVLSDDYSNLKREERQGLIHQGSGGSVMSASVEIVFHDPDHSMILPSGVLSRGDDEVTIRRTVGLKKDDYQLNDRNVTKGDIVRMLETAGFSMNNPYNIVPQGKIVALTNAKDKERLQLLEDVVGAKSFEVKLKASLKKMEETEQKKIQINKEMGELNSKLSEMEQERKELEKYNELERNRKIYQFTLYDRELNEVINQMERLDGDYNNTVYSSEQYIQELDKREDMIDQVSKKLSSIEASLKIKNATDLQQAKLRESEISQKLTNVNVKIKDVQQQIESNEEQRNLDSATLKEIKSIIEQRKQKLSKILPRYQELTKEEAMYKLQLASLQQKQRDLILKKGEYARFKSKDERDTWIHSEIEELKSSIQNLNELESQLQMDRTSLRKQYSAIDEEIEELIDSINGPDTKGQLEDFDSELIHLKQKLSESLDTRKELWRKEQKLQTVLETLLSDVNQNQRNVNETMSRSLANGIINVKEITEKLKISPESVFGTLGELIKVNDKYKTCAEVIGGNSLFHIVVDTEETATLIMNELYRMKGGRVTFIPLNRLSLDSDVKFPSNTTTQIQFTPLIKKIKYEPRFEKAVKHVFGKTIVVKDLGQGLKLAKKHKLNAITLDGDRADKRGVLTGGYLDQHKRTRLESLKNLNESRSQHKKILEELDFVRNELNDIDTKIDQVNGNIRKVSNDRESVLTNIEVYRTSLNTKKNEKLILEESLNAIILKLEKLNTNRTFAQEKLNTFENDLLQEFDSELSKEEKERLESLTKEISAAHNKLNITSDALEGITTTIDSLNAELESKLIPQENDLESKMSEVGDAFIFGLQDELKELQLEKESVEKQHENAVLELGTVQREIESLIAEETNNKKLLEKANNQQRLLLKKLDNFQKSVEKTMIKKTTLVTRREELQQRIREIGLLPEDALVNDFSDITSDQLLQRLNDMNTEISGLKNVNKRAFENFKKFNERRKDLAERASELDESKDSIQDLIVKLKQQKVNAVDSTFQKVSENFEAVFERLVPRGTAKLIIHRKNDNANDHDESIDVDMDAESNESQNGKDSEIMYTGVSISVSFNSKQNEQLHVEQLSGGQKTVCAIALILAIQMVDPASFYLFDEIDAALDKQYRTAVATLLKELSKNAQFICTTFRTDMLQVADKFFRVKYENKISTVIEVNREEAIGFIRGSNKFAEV
Chain of smc1p-T1117I cohesin (S. cerevisiae) (Q12158 whole entry, chain 3 of 4, further chain): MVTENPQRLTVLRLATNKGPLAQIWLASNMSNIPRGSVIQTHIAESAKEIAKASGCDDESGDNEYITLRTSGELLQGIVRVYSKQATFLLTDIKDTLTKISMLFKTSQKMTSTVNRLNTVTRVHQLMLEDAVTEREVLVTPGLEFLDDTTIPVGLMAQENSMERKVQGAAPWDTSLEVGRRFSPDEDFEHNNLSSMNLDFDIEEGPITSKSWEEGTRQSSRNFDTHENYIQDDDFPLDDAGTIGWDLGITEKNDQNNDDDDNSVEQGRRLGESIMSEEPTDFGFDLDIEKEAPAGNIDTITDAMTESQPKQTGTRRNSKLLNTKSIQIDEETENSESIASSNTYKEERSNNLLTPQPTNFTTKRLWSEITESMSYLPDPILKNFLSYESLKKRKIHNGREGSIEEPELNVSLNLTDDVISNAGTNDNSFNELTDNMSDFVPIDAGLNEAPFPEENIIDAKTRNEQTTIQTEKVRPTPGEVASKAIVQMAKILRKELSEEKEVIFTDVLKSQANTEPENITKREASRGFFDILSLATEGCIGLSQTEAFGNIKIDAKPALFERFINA
Chain of smc1p-T1117I cohesin (S. cerevisiae) (P40541 whole entry, chain 4 of 4, further chain): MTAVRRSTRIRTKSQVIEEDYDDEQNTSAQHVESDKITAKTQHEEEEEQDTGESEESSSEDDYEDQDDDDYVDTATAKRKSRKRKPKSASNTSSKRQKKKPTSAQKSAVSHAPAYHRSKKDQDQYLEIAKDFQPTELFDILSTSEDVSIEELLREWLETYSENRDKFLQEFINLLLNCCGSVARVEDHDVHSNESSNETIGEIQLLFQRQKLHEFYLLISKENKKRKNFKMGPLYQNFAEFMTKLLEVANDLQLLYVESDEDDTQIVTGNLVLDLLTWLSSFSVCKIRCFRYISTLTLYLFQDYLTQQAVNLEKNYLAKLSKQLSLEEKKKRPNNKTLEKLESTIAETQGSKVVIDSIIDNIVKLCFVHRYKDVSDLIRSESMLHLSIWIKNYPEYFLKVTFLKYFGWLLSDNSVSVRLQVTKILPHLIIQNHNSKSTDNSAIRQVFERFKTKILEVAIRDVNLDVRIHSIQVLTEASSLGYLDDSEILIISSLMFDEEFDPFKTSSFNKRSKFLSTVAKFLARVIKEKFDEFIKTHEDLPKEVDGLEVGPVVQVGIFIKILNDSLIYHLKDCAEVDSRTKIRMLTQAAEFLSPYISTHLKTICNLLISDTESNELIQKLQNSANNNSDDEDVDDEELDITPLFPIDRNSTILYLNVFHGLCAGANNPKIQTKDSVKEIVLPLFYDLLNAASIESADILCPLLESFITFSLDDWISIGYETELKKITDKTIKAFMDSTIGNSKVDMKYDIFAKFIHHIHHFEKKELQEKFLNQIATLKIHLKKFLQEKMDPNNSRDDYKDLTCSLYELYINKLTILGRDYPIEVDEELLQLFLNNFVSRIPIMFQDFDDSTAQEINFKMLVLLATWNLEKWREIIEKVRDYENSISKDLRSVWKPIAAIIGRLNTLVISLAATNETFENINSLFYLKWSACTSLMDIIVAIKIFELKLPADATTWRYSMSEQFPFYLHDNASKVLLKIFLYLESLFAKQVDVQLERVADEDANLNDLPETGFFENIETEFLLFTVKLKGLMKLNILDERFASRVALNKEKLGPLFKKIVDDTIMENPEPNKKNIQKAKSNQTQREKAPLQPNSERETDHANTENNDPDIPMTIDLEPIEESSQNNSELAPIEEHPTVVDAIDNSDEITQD

Take “Scc2p/Scc4p (cohesin loader) (from UniProt Q04002 1-1493; P40090 1-624) (complex)”: in experiment [1], the ATPase activity of purified cohesin in the presence of DNA with Scc2p, against wild-type cohesin with Scc2p; EnzChek phosphate assay (% greater than wild-type cohesin) came out at 50. The ATPase activity of purified cohesin in the presence of DNA, induction by Scc2p against that of wild-type cohesin; EnzChek phosphate assay (fold less than wild type) in experiment [2] and in experiment [3] was 2 throughout.
